Reference: the nanobody polyreactivity screen of Harvey et al. (2022)

Test: yeast display, Sf9 membrane polyspecificity reagent, FACS + sequencing; frameworks hold sequencing errors
Outline: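 After 36–48 hours of galactose induction, yeast (Saccharomyces cerevisiae BJ5465) displaying a synthetic nanobody library were stained at 4 °C for 1 hour with 10% biotinylated, detergent-solubilized Sf9 membrane reagent. Streptavidin microbeads enriched the stained cells before FACS sorting into low and high (top ~1%) gates on anti-HA and streptavidin fluorescence. Each clone's polyreactivity label reflects its gate of origin.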

Question: For “QVQLVESGGGLVQAGGSLRLSCAASGNIFKVNAMGWYRQAPGKERELVAGISWSGGSTYYADSVKGRFTISRDNAKNTVYLQMNSLKPEDTAVYYGNVGRGYWGYLYDYWGQGTQGTVSS”, which “polyreactivity (PSR sort gate)” value is on record?
Answer: The value was “low polyreactivity”.

Question: For “QVQLVESGGGLVQAGGSLRLSCAASGRIFIPYAMGWYRQAPGKERELVAVISWNGGSTYYADSVKGRFTISRDNAKNTVYLQMNSLKPEDTAVYYCAADTYPYAKMDYWGQGTQVTVSS”, which “polyreactivity (PSR sort gate)” value is on record?
Answer: The value was “low polyreactivity”.

Question: Which “polyreactivity (PSR sort gate)” value does the source give for “QVQLVESGGGLVQAGGSLRLSCAASGSTFAANAMGWYRQAPGKERELVAVIRRGGSTTYADSVKGRFTISRDNAKNTVYLLMNSLKPEDTAVYYCNARVTLGRPLFTYLVRYEYWGQGTQVTVSS” here?
Answer: The value was “high polyreactivity”.

Question: With “QVQLVESGGGLVQAGGSLRLSCAASGSTFIVYAMGWYRQAPGKERELVAAITRGGSTNYADSVKGRFTISRDNAKNTVYLQMNSLKPEDTAVYYCAAPYAGWRDGGDYWGQGTQVTVSS” as the sequence, how does the “polyreactivity (PSR sort gate)” value read?
Answer: The value was “low polyreactivity”.

Question: Which “polyreactivity (PSR sort gate)” value does the source give for “QVQLVESGGGLVQAGGSLRLSFAASGRTFVRYAMVWYRQAPGKERELVAAISWSGGSTYYADSVKGRFTISRDNAKNTVYLQMNSLKPEDTAVYYCAAYYRGGNFDYWGQGTQVTLSS” here?
Answer: Its value is “high polyreactivity”.

Question: For “QVQLLESGGGLVQAGGSLRLCCASSGYIFWGANMGWYRQAPGKEREFVAAIGHGTVTCYADSVKGRFTISRDNAKNTVYLQMNSLKPEDTAVYNCAAYSDVRKPHRYWGQGTQVTVVS”, which “polyreactivity (PSR sort gate)” value is on record?
Answer: The value was “high polyreactivity”.

Question: For “QVQLVESGGGLVQAGGSLRLSCAASGSTFGYYAMGWYRQEPGKERELVAAISRGSSTYYADSVKGRFTISRDNAKNTVYLQMNSLKPEDTAVYYCAAKRYAYGSLDYWGQGTQVTVSS”, which “polyreactivity (PSR sort gate)” value is on record?
Answer: Its value is “high polyreactivity”.

Question: With “QVQLVESGGGLVQAGGSLRLSCAASGSTFSPYAMGWYRQSPGKEMELVAVITSSGGDTYYADSVKGRFTISRDNAKNTVYLQMNSLKPEDTAVYYCAADWWVLGQLWFDYWGQGTQVTVSS” as the sequence, how does the “polyreactivity (PSR sort gate)” value read?
Answer: Its value is “low polyreactivity”.

Question: For “QVQLVESGGGLVQAGGSLRLSCAASGFTFTAYAMGWYRQAPGKERELVAAINWSGSRTYYADSVKGRFTISRDNAKNTVYLQMNSLKPEDTAVYYCNTATSKSSYRHYDYWGQGTQVTVSS”, which “polyreactivity (PSR sort gate)” value is on record?
Answer: The value was “high polyreactivity”.

Question: Which “polyreactivity (PSR sort gate)” value does the source give for “QVQLVESGGGLVQAGGSLRISCAASGRIFSYNDMGWYRPAPGKERELVAAITGGGSTNYADSVKGRFTISRDNAKNTVYLQMNSLKPEDTAVYYCAARSWSDKYWGQGTQVTVSS” here?
Answer: The value was “high polyreactivity”.

Question: For “QVQLVESGGGLVQAGGSLRLSCAASGSIFGDYDMGWYRQAPGKERELVAAITSGGSTDYADSVKGRFTISRDNAKNTVYLQMNRLKPEDTAVYYCAAEDKCGYFLFPFWLELDYWGQGTQVTVSS”, which “polyreactivity (PSR sort gate)” value is on record?
Answer: Its value is “low polyreactivity”.

Question: Which “polyreactivity (PSR sort gate)” value does the source give for “QVQLVESGGGLVQAGGSLRLSCAASGLTLPYNAMGSYRQAPGKERELVAAITCIGGSTYYADSVKGRFTISRDNAKNTVYLEMNSLKPEDSAVYYCAKEVRGPIIYLEGYWGQGTQVTVSS” here?
Answer: The value was “low polyreactivity”.

Question: With “QVQLVESGGGLVQAGGSLRLSCAASGFTFWYYAMGWYRQAPGKERELVADISTRGGSTYYADSVKGRFTISRDNAKNTVYLQMNSLKPEDTAVYYCAAKYARNLAGDDPYDYWGQGTQVTVSS” as the sequence, how does the “polyreactivity (PSR sort gate)” value read?
Answer: The value was “high polyreactivity”.

Question: With “QVQLVASRGGLVQAGGILRLSSAASGSTFPSYEMGWYRQARGKERELVAAINSGRGSNYADSVKGRFTISRDNAKNTVYLQMNCLIPDDTAVYYCGISRYDYTNTEGGYWGQGTQVTVSS” as the sequence, how does the “polyreactivity (PSR sort gate)” value read?
Answer: Its value is “low polyreactivity”.

Question: Which “polyreactivity (PSR sort gate)” value does the source give for “QVQLVESGGGLVQAGGSLRLSCAASVRIFRFYVMGWYRQAPGKERELVAAISKRGASTSYADSVKGRFTISRDNAKNTVYLQMNSLKPEDTAVYYCAASAKRGEMGYWGQGTQVTVSS” here?
Answer: Its value is “high polyreactivity”.

Question: For “QVQLVESGGGLVQAGGSLRLSCAPSGRNFTYYDMGRYRQAPGKEREFVAVISDNDSSTYADSVKGRFTISPDNAKNTVYLQMNRLKPEDTAVYYCNAYRQYRSWRYDYWGQGTQVTVSS”, which “polyreactivity (PSR sort gate)” value is on record?
Answer: Its value is “high polyreactivity”.

Question: For “QVQLVESGGGLVQAGGSLRLSCAASGRIFYSYAMGWYRQAPGKERELVAAITESGGSTNYADSVKGRFTISRDNAKNTVYLQMNSLKPEDTAVYYCNARYKLTFNLYNYWGQGTQVTVSS”, which “polyreactivity (PSR sort gate)” value is on record?
Answer: Its value is “low polyreactivity”.

Question: Which “polyreactivity (PSR sort gate)” value does the source give for “QVQLVESGGGLVQAGGSLRLSCAASGFIFHRYAMGWYRQAPGKERELVAAITGRGSSTYYADSVKGRFTISRDNAKNTVYLQMNCLKPEDTGVYYCNAYRYQVYDTGWFGYWGQGTQVTVSS” here?
Answer: Its value is “high polyreactivity”.

Question: For “QVQLVESGGGLVQAGGSLRLSCAASGSIFAKYAMGWYRQAPGKERELVAAITSGGSTNYADSVKGRFTISRDNAKNTVYLQMTSLKPEDTAVYYCAARNHYRGYYWGQGTHVTVSS”, which “polyreactivity (PSR sort gate)” value is on record?
Answer: The value was “low polyreactivity”.

Question: Which “polyreactivity (PSR sort gate)” value does the source give for “QVQLVESGGRLVQAGGSLRLSCAASGFTFRYYAMGWYRQAPGKERELVAAINSGGSTNFADSVKGRFTISRDNAKNTVYLQMNSLKPEDTAVYYCAKRGRRGIVYLGSAEMDYWGQGTQVTVSS” here?
Answer: Its value is “low polyreactivity”.

Question: For “QVQLVESGGGFVQAGGSLRLSCAASGRIFTRYAMGWYRQAPGKERELVASISWSGDGTYYADSVKGRFTISRDNAKNTVYLQMNSLKPDDTAVYYCAARYGTVVPGQVRWYGYGYWGQGTQVTVSS”, which “polyreactivity (PSR sort gate)” value is on record?
Answer: Its value is “high polyreactivity”.

Question: Which “polyreactivity (PSR sort gate)” value does the source give for “QVQLVESGGGLVQAGGRLRLSCAASGSIFYRSAMGWYRQAPGKERELVAAITRSDGRTYYADSVKGRFTISRDNAKNTVYLQMNSLKPEDTAVYYCNKDGAYKTAYKRWTLYDYWGQGTQVTVSS” here?
Answer: Its value is “low polyreactivity”.

Question: For “QVQLVESGGGLVQAGGSLRLSCAASGFTFNDYAMGRSRQAPGKERELVAAIDWSGGRTYYADSVKGRFTISRDYEKNTVYLQMKSLKPEDTAVYYCAAVLYSRLYWYSLDYWGQGTQVTVSS”, which “polyreactivity (PSR sort gate)” value is on record?
Answer: The value was “low polyreactivity”.

Question: For “QVQLVESGGGLVHAGGSLRLSCAASGSTFYENAMGWYRQAPGKERELVAAITWSGGRTYYADSVKGRFTISRDNAKNTVYLQMNSLKPEDTAVYYCAAGLFVGFDYWGQGTQVTVSS”, which “polyreactivity (PSR sort gate)” value is on record?
Answer: The value was “high polyreactivity”.

Question: With “QVQLVESGGGLVQAGGSLRLSCAASGSIFDAYVMGWYRQAPGKERELVAAISRSGGSTYYADSVKGRFTISRDNAKNTVYLQMNSLKPEDTAVYYCAAEKIRSSPYRYDYWGQGTQVTVSS” as the sequence, how does the “polyreactivity (PSR sort gate)” value read?
Answer: The value was “low polyreactivity”.

Question: For “QVQLVESGGGLVQAGGSLRLSCAASGSTFDKYAMGWYRQAPRKERELVAAITWGGGSTYYADSVKGRITISRDNAKNTVYLPMNSLKPEDTAVYYCAAEQRSSVLYDSWGQGTQVTVSS”, which “polyreactivity (PSR sort gate)” value is on record?
Answer: Its value is “low polyreactivity”.

Question: For “QVQLVESGGGFVQAGGSLRLSCAASGRNFFSNAMGWYRQAPGNEWELVASITSRGGTTYYADSVKGRFTISSYNAKNPVYLQMNSVKPEDTAVYYCAALRRSYFGYWGQVTQVTVSS”, which “polyreactivity (PSR sort gate)” value is on record?
Answer: Its value is “high polyreactivity”.

Question: With “QVQLVESGGGLVHAGGSLRLSCAASGITFERYAMGWYRQAPGKERELVAAITSSGGSTYYADSVKGRFTISRDNAKNTVYLQMNSLKPEDTAVYYCAARTAYTPRHDYWGQGTEVTVSS” as the sequence, how does the “polyreactivity (PSR sort gate)” value read?
Answer: Its value is “high polyreactivity”.

Question: Which “polyreactivity (PSR sort gate)” value does the source give for “QVQLVESRGGLVQAGGSLRLSCAASGRTFQYYAKGWYRQERGKVRELVAAISGSTSRTYYADSVKGRFTISRDNAKNTVYLQMNSLKPEDTAVSYCAAALYRLYITSYYYWGPGTQVTVSS” here?
Answer: Its value is “high polyreactivity”.

Question: For “QVQLEESGVGLVQAGGSLRLSCAASGSIFPAYAMGSYRQAPGKERELLAAITFSGGRTYYADSVKGRLTISRDNAKNTFYLQMNSLKPEDTAVYYCAAYGAPSGTGAKYGYWGQGTQVTVSS”, which “polyreactivity (PSR sort gate)” value is on record?
Answer: The value was “low polyreactivity”.

Question: Which “polyreactivity (PSR sort gate)” value does the source give for “QVQLVESRGGLVQAGGSLRLSCAASGRTFWYYAMGWYRQAPGKELELVATITGSGGTTYYADSVKGRFTISRDNAKNTVYLQMNSLKPEDTAVYYCAKEQHWYIYGPAEVDYWGQGTQVTVSS” here?
Answer: Its value is “high polyreactivity”.

Question: Which “polyreactivity (PSR sort gate)” value does the source give for “QVQLVESGGGLVQAGGTLRLSCAASGSTFVRNAMGWYRQPPGKERELVAAISVDGSSTYYADSVKGRFTISRDNAKNTVYLQMNSLKPEDTAVYYCNADWDYRDFYDITYDYWGQGTQVTVSS” here?
Answer: Its value is “low polyreactivity”.
